Data on 3 molecules can be found in US20240058447A1 (INSTIL BIO UK, published 2024).

Test [1] addresses membrane-bound FRα on target cells (UniProt P15328). Description: cell-based or functional assay.
Test [2] addresses CD3 of the TCR/CD3 complex on T cells (human) (UniProt P07766). Description: cell-based or functional assay.
The target in test [3] is T1, human histidine-tagged FRα (human, UniProt P15328 25-234).
T1 construct: also called folate receptor α; FOLR1; not shown: histidine tag
Kind of test: surface plasmon resonance (printed 'Surface plasma resonance'); orientation not stated; FIG. 54 names human histidine-tagged FRα. (In SPR one partner is held on a chip, and binding of the other changes the refractive index at the surface.)

membrane-bound FRα on target cells, sequence (P15328 25-234 limits assumed): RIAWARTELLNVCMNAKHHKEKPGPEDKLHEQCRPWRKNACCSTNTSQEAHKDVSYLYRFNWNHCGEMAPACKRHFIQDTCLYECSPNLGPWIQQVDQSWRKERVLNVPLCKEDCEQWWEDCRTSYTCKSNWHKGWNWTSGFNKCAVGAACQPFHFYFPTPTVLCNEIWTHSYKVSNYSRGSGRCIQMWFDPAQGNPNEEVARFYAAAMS
CD3 of the TCR/CD3 complex on T cells (human), sequence (P07766 23-207, one chain of several): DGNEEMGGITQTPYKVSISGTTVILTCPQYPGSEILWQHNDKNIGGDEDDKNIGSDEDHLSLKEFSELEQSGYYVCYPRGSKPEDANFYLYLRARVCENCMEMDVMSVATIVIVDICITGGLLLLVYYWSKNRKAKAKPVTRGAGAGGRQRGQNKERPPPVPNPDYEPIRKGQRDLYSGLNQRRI
T1 sequence (P15328 25-234 limits assumed): as the sequence (P15328 25-234 limits assumed) above

As to “anti-FRα CoStAR (MOV19 scFv - CD28 - CD40 costimulatory antigen receptor) on T cells or TILs”, in test [1], the IFNγ production of lung TIL against Ba/F3.OKT3.FRα, CoStAR-Td versus non-Td came to 4 fold; the IFNγ production of lung TIL against autologous tumor digest, E:T 1:1, CoStAR-Td versus non-Td is 6.4 fold; the IFNγ production of ovarian TIL against Ba/F3.OKT3.FRα, CoStAR-Td versus non-Td came out at 4.2 fold; the IFNγ production of ovarian TIL against autologous tumor digest, E:T 1:1, CoStAR-Td versus non-Td came out at 4.3 fold. In test [1], the IFNγ production of renal TIL against Ba/F3.OKT3.FRα, CoStAR-Td versus non-Td stood at 3.1 fold; the IFNγ production of renal TIL against autologous tumor digest, E:T 1:1, CoStAR-Td versus non-Td stood at 2.4 fold; the IL-2 production of lung TIL against Ba/F3.OKT3.FRα, CoStAR-Td versus non-Td came to 18.3 fold; the IL-2 production of ovarian TIL against Ba/F3.OKT3.FRα, CoStAR-Td versus non-Td turned out to be 19.9 fold. In test [1], this molecule gave an IL-2 production of renal TIL against Ba/F3.OKT3.FRα, CoStAR-Td versus non-Td of 15 fold; a fold expansion after a single stimulation with Ba/F3.OKT3.FRα, no exogenous IL-2, day 7 of 6.7 fold; a fold expansion after repeated stimulation with Ba/F3.OKT3.FRα (days 0, 7, 14, 21), no exogenous IL-2, day 35 of 829 fold; a fold expansion of T cells cocultured with Ba/F3.OKT3.FRα, E:T 8:1, 200 IU/mL IL-2, day 35 of 198 fold. Moreover, the xCELLigence cytotoxicity against H508.Luc.Puro.FRα, AUC of normalized cell index over 48 h, E:T 10:1, donor 37636 TCR.CoStAR-Td T cells in test [1] worked out at 91.2 AUC.

In the case of “membrane-anchored OKT3 on target cells (scFv)”, in test [2], the cytotoxicity against Ba/F3.OKT3 at E:T 1:5 after 5 days, CoStAR transduced T cells is 82% and the cytotoxicity against Ba/F3.OKT3 at E:T 1:5 after 5 days, non-transduced T cells was determined as 74%.

B1: MOV19 monoclonal antibody (antibody, V domains shown)
VH: QVQLQQSGAELVKPGASVKISCKASGYSFTGYFMNWVKQSHGKSLEWIGRIHPYDGDTFYNQNFKDKATLTVDKSSNTAHMELLSLTSEDFAVYYCTRYDGSRAMDYWGQGTTVTVSS
VL: DIELTQSPASLAVSLGQRAIISCKASQSVSFAGTSLMHWYHQKPGQQPKLLIYRASNLEAGVPTRFSGSGSKTDFTLNIHPVEEEDAATYYCQQSREYPYTFGGGTKLEIK
notes: also called MOV19 antibody; MOV19 anti-FRα antibody
A word on the Kd: it is the constant that tells how readily two partners part at equilibrium. Regarding B1, the Kd in test [3] was roughly 0.46 nM.
